Columns and labels:
[1] = target: HRP29 portal protein gp35 (Shigella phage HRP29); experiment: cryo-EM structure
[2] = target: HRP29 tailspike adapter protein gp44 (in the virion) (Shigella phage HRP29); experiment: cryo-EM structure
[3] = target: HRP29 decoration protein gp48 (Shigella phage HRP29); experiment: cryo-EM structure
[4] = target: HRP29 tailspike protein gp52 (Shigella phage HRP29); experiment: negative-stain electron microscopy with 2D classes and 3D reconstruction

In the case of “HRP29 portal protein gp35 (natural protein)”, the stoichiometry N [1] is reported as 12.
Substance “HRP29 tailspike adapter protein gp44 (in the virion) (natural protein)” has a stoichiometry N [2] of 3.
“HRP29 decoration protein gp48 (natural protein)” was tested, and the stoichiometry N [3] was 2.
Work on “HRP29 tailspike protein gp52 (natural protein)” yielded a stoichiometry N [4] of 3.
